From US12661396B2, “Selective targeting of the TREML1/MD2 interaction by small peptide or protein and its use for vaccine adjuvants” (Ascendo Biotechnology, Inc., priority 2020, dated 2026)
Values belong to the molecule of their own block, whether it stands above or below them.

Experiments:
[1] = system: Human peripheral blood mononuclear cells (PBMCs); experiment: TLR agonist-induced TNF-α secretion in human PBMCs with or without TREML1 ECD; assay type: cell-based; settings: human PBMCs, 18 hr; FIG. 7A
Description: Human peripheral blood samples from healthy volunteer donors were collected by venipuncture bled into ACD vacutainer tubes. Human peripheral blood mononuclear cells (PBMCs), which were separated from whole blood using Ficoll-Paque Plus (GE17-1440-03) according to the manufacturer's instructions. Human peripheral blood mononuclear cells (PBMCs) were pretreated with or without […]1 (10 ug/ml, 5 ug/ml and 1 ug/ml) and incubated for 30 min at 37° C. with 5% CO2. After treatments, cells were stimulated with TLR agonist, including R848 (InvivoGen #tlrl-r848) and ODN2395 (InvivoGen #tlrl-2395), and incubated at 37° C. with 5% CO2 for 18 hr. Supernatants of cell culture medium were collected for TNF-α measurements. Cell supernatants and plasma samples were harvested and stored at -80° C. Human TNFα concentrations were detected using TNF-α DuoSet ELISA kit (R&D #DY210) according to manufacturer's instructions. Signals were developed using 3,3',5,5'-tetramethylbenzidine and the absorbance of 450 nm was detected with a microplate reader.

CD14 = target: T1, CD14 (Homo sapiens, UniProt P08571); experiment: Solid phase binding assay, hCD14 to immobilized TREML1 stalk; settings: stalk coated 5 ug/ml; FIGS. 3A and 3B
T1 sequence (P08571 20-345): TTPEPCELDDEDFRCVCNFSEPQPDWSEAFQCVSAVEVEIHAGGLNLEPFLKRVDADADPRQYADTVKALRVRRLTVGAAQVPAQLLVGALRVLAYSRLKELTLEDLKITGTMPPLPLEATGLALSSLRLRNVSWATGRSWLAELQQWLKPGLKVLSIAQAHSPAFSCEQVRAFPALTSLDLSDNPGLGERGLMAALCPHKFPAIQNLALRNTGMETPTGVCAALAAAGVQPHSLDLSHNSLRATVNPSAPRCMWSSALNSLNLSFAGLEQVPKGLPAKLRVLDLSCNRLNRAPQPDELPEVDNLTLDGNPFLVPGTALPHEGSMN
Description: (§1) For TREML1 or mTREML1 stalk binding to human or mouse MD2 protein, TREML1 stalk or mTREML1 stalk (5 ug/ml in PBS) was coated separately on a 96-well plate. Recombinant hTLR4, hMD2, hCD14, or mMD2 was each serially diluted and added to the plates. Anti-His tag antibody-HRP was used as a detection antibody to detect the protein binding.

MD2 = target: T2, MD2 (Homo sapiens, UniProt Q9Y6Y9); experiment: Solid phase binding assay, hMD2 to immobilized TREML1 stalk; settings: stalk coated 5 ug/ml; anti-His tag antibody-HRP detection; FIG. 3A
T2 sequence (Q9Y6Y9 19-160): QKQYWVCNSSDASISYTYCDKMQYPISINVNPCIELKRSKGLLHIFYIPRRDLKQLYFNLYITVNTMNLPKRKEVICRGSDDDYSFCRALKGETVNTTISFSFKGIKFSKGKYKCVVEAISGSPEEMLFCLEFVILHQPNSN
Description: as §1

TLR4 = TLR4 (Homo sapiens, UniProt O00206); experiment: Solid phase binding assay, hTLR4 to immobilized TREML1 stalk; settings: stalk coated 5 ug/ml; FIGS. 3A and 3B
Description: as §1

BMDCs = experiment: Mouse bone marrow derived dendritic cell maturation (flow cytometry); assay type: cell-based; settings: FIG. 8
Description: Femurs and tibiae were harvested from female C57BL/6 mice and extra muscle tissues were removed. Bones were disinfected in 70% ethanol, then rinsed with RPMI-1640 medium, and both ends were cut to flush out the bone marrow with RPMI-1640 medium using 26 G needle syringes. To disperse cell clumps, bone marrow suspension was pipetted in-and-out several times and washed twice with RPMI-1640 medium by centrifugation. […] At day 0, after cell counting, the leukocytes were seeded at a concentration of 2×10^6 cells/10 ml R10 medium containing 200 U/ml rmGM-CSF in sterile […] Petri dish and incubated at 37° C. with 5% CO2. At day 3, another 10 ml of R10 medium containing 200 U/ml rmGM-CSF was added. At days 6, one half of the supernatant was taken out and centrifuged to collect cell pellet, which was resuspend in original plate with 10 ml of R10 medium containing 200 U/ml GM-CSF. At day 8, non-adherent cells were collected by gentle pipetting and centrifuged at 300 g for 5 min. To obtain purer dendritic cells, the population of macrophages (F4/80^high) was removed with Anti-F4/80 MicroBeads UltraPure (130-110-443, Miltenyi Biotec, Bergisch Gladbach, Germany) following the manufacturer's instructions. Briefly, cell pellet was resuspended and mixed well in MACS buffer with Anti-F4/80 MicroBeads UltraPure. This mixture was incubated for 15 min in the dark in 4° C. After washing cells with MACS buffer, cells were resuspended in MACS buffer, filtered with 30 μm nylon mesh, and added to the MACS buffer rinsed column to separate F4/80^+ cells. Unlabeled cells were collected and washed with R10 medium. To freeze the cells, cell pellet was counted and resuspended at a concentration 1×10^7 cell in 2 ml CELLBANKER2 (#11891, ZENOAQ) per cryopreservation vial and stored at −80 degree Celsius.
BMDCs were thawed for the DC maturation experiments. These cells were seeded at 1×10^6 cells/2 ml in R10 medium containing 200 U/ml rmGM-CSF in wells of a 6-well tissue culture dish and cultured to recover the cell viability at 37° C. with 5% CO2. After 6 hr, BMDCs were treated with various fragments of mTREML1 protein and cultured in 37° C. with 5% CO2. On the next day, resuspended cells were collected and analyzed by flow cytometry.
Cells were centrifuged at 1800 rpm for 3 min in PBS containing 1% FBS and 0.1% sodium azide (PBSBA), and then divided at a concentration of 1×10^5 cells/100 ul PBSBA in flow tube. Before staining the surface marker of DC, cells were treated with mouse Fc blocker to avoid antibody non-specific binding at room temperature for 30 min. […] After PBSBA washing, samples were analyzed using the CytoFlex flow cytometer with the CytExpert software.

Chain of TLR4 (O00206 24-839): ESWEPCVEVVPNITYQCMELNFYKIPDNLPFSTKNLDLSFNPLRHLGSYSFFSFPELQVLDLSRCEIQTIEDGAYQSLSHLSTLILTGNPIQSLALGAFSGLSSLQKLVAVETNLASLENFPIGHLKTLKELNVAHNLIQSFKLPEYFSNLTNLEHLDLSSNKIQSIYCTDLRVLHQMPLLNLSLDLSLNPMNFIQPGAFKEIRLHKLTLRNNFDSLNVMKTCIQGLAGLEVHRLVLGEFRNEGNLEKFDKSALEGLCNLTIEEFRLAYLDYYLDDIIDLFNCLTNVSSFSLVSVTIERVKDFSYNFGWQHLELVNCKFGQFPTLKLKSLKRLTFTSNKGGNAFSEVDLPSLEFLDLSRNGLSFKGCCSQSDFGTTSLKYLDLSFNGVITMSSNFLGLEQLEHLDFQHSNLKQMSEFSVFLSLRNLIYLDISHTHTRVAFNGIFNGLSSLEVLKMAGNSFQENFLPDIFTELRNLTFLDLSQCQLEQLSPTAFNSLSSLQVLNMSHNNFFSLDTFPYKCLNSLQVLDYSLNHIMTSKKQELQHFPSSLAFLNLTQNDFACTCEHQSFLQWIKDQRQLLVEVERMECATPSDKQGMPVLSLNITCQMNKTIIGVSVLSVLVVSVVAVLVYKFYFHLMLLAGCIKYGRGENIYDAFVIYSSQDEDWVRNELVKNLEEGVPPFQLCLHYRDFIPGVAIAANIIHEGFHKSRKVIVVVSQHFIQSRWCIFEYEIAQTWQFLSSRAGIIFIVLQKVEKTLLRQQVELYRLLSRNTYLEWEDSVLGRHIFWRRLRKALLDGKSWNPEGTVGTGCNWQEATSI

Molecule: CCOCc1nc2c(N)nc3ccccc3c2n1CC(C)(C)O [R848, 4-amino-2-(ethoxymethyl)-α,α-dimethyl-1H-imidazo[4,5-c]quinoline-1-ethanol, reference compound]
- TNF-α secretion induced by TLR agonist alone [1]: can induce TNF-α secretion

- CD14 binding to immobilized TREML1 stalk (CD14): do not bind TREML1 stalk
- TLR4 binding to immobilized TREML1 stalk (TLR4): do not bind TREML1 stalk
Molecule: TREML1 stalk: human TREML1 stalk polypeptide, SEQ ID NO:3, ILPPEEEEETHKIGSLAENAFSDPAGSANPLEPSQDEKSIP, chemically synthesized (listed as Homo sapiens)
- MD2 binding to immobilized TREML1 stalk (MD2): binds with TREML1 stalk in a concentration-dependent manner

B1: mTREML1 ECD: mouse TREML1 extracellular domain, SEQ ID NO:2; recombinant, E. coli, polyhistidine tag at the N-terminus (protein, listed as Mus musculus)
chain: DSHPEVLQAPVGSSILVQCHYRLQDVRALKVWCQFLQEGCHPLVTSAVDRRAPGNGRIFLTDLGGGLLQVEMVTLQEEDTGEYGCVVEGAAGPQTLHRVSLLVLPPVPGPREGEEAEDEKETYRIGTGSLLEDPSLDPSASAGPHEFRRRENSIP
modifications: N-terminal polyhistidine tag
notes: recombinant, E. coli, polyhistidine tag at the N-terminus
- dendritic cell maturation effect compared with TNF-α (BMDCs): significantly stronger than those of TNF-α
- dendritic cell maturation (DC maturation markers CD40, CD86, CD80, MHC II) (BMDCs; analyzed the next day): can trigger dendritic cell maturation
